Experiment [1] addresses S protein of the SARS-CoV-2 BA.1 strain on pseudo-virus (SARS-CoV-2 BA.1 strain). The experiment is described as follows: cell-based or functional assay.
Experiment [2] has as its target S protein of the SARS-CoV-2 BA.2.75 strain on pseudo-virus (SARS-CoV-2 BA.2.75 strain). The experiment is described as follows: cell-based or functional assay.
For experiment [3], the target named is S protein of the SARS-CoV-2 BA.4/5 strains on pseudo-virus (SARS-CoV-2 BA.4/5 strain). As to the kind of experiment: cell-based or functional assay.
The target in experiment [4] is S protein of the SARS-CoV-2 BF.7 strain on pseudo-virus (SARS-CoV-2 BF.7 strain). The experiment is described as follows: cell-based or functional assay.
In experiment [5] the target is S protein of the SARS-CoV-2 BQ.1 strain on pseudo-virus (SARS-CoV-2 BQ.1 strain). As to the kind of experiment: cell-based or functional assay.
Experiment [6] deals with S protein of the SARS-CoV-2 BQ.1.1 strain on pseudo-virus (SARS-CoV-2 BQ.1.1 strain). As to the kind of experiment: cell-based or functional assay.
Experiment [7] has as its target S protein of the SARS-CoV-2 Delta strain on pseudo-virus (SARS-CoV-2 Delta strain). The experiment is described as follows: cell-based or functional assay.
Experiment [8] deals with S protein of the SARS-CoV-2 XBB strain on pseudo-virus (SARS-CoV-2 XBB strain). The experiment is described as follows: cell-based or functional assay.
Experiment [9] addresses S protein of the SARS-CoV-2 XBB.1.5 strain on pseudo-virus (SARS-CoV-2 XBB.1.5 strain). The experiment is described as follows: cell-based or functional assay.
Experiment [10] has as its target SARS-CoV-2 (BA.5) Spike RBD (SARS-CoV-2 BA.5 strain). As to the kind of experiment: SPR, Biacore 8K; antibody captured on Protein A chip, RBD as analyte.
For experiment [11], the target named is SARS-CoV-2 (BF.7) Spike RBD (SARS-CoV-2 BF.7 strain). The experiment is described as above.
Experiment [12] shares this target. The experiment is described as follows: ELISA on plate-coated RBD (1 µg/mL), HRP anti-human Fc detection, OD450.

The term Kd denotes a measure of binding affinity in units of concentration. Higher therefore signals a looser complex. By koff is commonly meant the rate constant with which the complex falls apart. A low value points to slow dissociation. As usually defined, the kon is the second-order rate constant of association. A low value points to slow association. One may read the EC50 as the concentration giving half of the maximal effect. A high value points to a need for much substance.

Chain of LY-CoV1404 (antibody) (VH): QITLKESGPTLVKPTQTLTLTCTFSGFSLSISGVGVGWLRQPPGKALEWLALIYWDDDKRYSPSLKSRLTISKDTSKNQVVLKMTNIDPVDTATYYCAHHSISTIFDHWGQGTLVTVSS
Chain of LY-CoV1404 (antibody) (VL): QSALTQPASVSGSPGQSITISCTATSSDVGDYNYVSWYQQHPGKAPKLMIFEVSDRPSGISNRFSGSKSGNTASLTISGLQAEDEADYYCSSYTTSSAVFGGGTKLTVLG

Regarding LY-CoV1404 (antibody), the Neutralization activity (IC50) against pseudo-virus in experiment [1] is 1.44 ng/mL; in experiment [2] it was 25.1 ng/mL; in [3], 1.22 ng/mL; in [4] it was 2.14 ng/mL; in [5], greater than 2000 ng/mL; in experiment [6], greater than 2000 ng/mL. In addition, the Neutralization activity (IC50) against pseudo-virus is 3.05 ng/mL in experiment [7], greater than 2000 ng/mL in experiment [8] and greater than 2000 ng/mL in [9]. Besides, the Kd in experiment [10] worked out at 0.184 nM; in experiment [11], 0.162 nM. For the same substance, the koff is 0.000264 s⁻¹ in experiment [10] and 0.000148 s⁻¹ in experiment [11]. The kon worked out at 1.44e+06 M⁻¹ s⁻¹ in [10] and 910000 M⁻¹ s⁻¹ in [11]. For the same substance, the EC50 in experiment [12] amounted to 0.111 nM.
